± gives the uncertainty stated by the source.
Experiment: self-splicing fitness, log relative to wild type (ln ratio); higher = more splicing; Tetrahymena group I intron in knt gene, E. coli kanamycin selection, DiMSum; sequences stand for … in CUCUCU…GGAGGGAAAAGUUAUCAGGCAUGCACCUGGUAGCUAGUCUUUAAACCAAUAGAUUGCAUCGGUUUAAAAGGCAAGACCGUCAAAUUGCGGGAAAGGGGUCAACAGCCGUUCAGUACCAAGUCUCAGGGGAAACUUUGAGAUGGCCUUGCAAAGGGUAUGGUAAUAAGCUGACGGACAUGGUCCUAACCACGCAGCCAAGUCCUAAGUCAACAGAUCUUCUGUUGAUAUGGAUGCAGUUCACAGACUAAAUGUCGGUCGGGGAAGAUGUAUUCUUCUCAUAAGAUAUAGUCGGACCUCUCCUUAAUGGGAGCUAGCGGAUGAAGUGAUGCAACACUGGAGCCGCUGGGAACUAAUUUGUAUGCGAAAGUAUAUUGAUUAGUUUUGGAGUACUCGUGGUCG
Method in brief: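 Pooled colonies went to amplicon sequencing on an Illumina HiSeq 2500 after six replicate transformations. The plates were LB agar with 100 μg/mL carbenicillin, 50 μM IPTG and 0.2% rhamnose, with or without 25 μg/mL kanamycin, incubated overnight at 37°C or 30°C. The E. coli BL21(DE3) library had all eight P1ex-region intron nucleotides randomised, the intron placed in the knt kanamycin-resistance gene on pET-22b(+). DiMSum fitness is the error-weighted combination of replicate fold changes, kanamycin against none, normalised to wild type.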

Sequence | self-splicing fitness (ln) (30 °C) | self-splicing fitness (ln) (37 °C)
GUUGAGCAAUAUUACGGGGU | -3.56 ± 0.25 | -2.42 ± 0.22
GUUGAGCAAUAUUACGGUCG |  | -1.73 ± 0.34
GUUGAGCAAUAUUACGUAAC | -2.16 ± 0.42 | -2.88 ± 0.3
GUUGAGCAAUAUUACGUACA |  | -2.37 ± 0.49
GUUGAGCAAUAUUACGUGGU | -3.25 ± 0.28 | 
GUUGAGCAAUAUUACGUUAA | -2.83 ± 0.38 | -2.34 ± 0.25
GUUGAGCAAUAUUACGUUGG | -4.19 ± 0.28 | -2.01 ± 0.31
GUUGAGCAAUAUUACGUUUU | -2.91 ± 0.22 | -2.88 ± 0.3
GUUUAGCAAUAUUACGAAGC |  | -1.3 ± 0.31
GUUUAGCAAUAUUACGAAUU | -2.25 ± 0.38 | -0.545 ± 0.31
GUUUAGCAAUAUUACGACUC | 0.0633 ± 0.12 | 0.248 ± 0.15
GUUUAGCAAUAUUACGAGGU | -3.03 ± 0.2 | -2.03 ± 0.2
GUUUAGCAAUAUUACGCAAG | -2.45 ± 0.18 | -0.942 ± 0.17
GUUUAGCAAUAUUACGCACC | -1.95 ± 0.19 | -0.522 ± 0.26
GUUUAGCAAUAUUACGCGGG | -2.42 ± 0.19 | -1.89 ± 0.19
GUUUAGCAAUAUUACGCUAU |  | -1.56 ± 0.29
GUUUAGCAAUAUUACGGACC | -2.41 ± 0.35 | 
GUUUAGCAAUAUUACGGAGA |  | -2.24 ± 0.46
GUUUAGCAAUAUUACGGAGC |  | -2.99 ± 0.44
GUUUAGCAAUAUUACGGCCC | -1.66 ± 0.29 | 
GUUUAGCAAUAUUACGGUAG | -3.53 ± 0.29 | -1.72 ± 0.19
GUUUAGCAAUAUUACGGUCG | -1.35 ± 0.076 | -0.636 ± 0.099
GUUUAGCAAUAUUACGUGAC |  | -0.596 ± 0.41
GUUUAGCAAUAUUACGUGGA | -2.48 ± 0.21 | -2.89 ± 0.29
GUUUAGCAAUAUUACGUUGA | -3.52 ± 0.43 | -2 ± 0.26
UAAAAGCAAUAUUACGAACG | 0.282 ± 0.1 | 0.847 ± 0.12
UAAAAGCAAUAUUACGACAA | -0.243 ± 0.1 | 0.272 ± 0.11

Sequence | self-splicing fitness (ln) (30 °C) | self-splicing fitness (ln) (37 °C)
UAAAAGCAAUAUUACGACUA | 0.337 ± 0.089 | 0.733 ± 0.12
UAAAAGCAAUAUUACGAGGG | -3.83 ± 0.33 | -2.47 ± 0.3
UAAAAGCAAUAUUACGAGUC | -3.45 ± 0.27 | -3.74 ± 0.39
UAAAAGCAAUAUUACGAUAC | -2.36 ± 0.31 | -3.93 ± 0.46
UAAAAGCAAUAUUACGAUGU | -2.44 ± 0.15 | -1.33 ± 0.19
UAAAAGCAAUAUUACGCAAA | -3.71 ± 0.4 | -0.788 ± 0.18
UAAAAGCAAUAUUACGCAUG | -0.716 ± 0.068 | -0.257 ± 0.1
UAAAAGCAAUAUUACGCCCC | -3.1 ± 0.49 | 0.13 ± 0.35
UAAAAGCAAUAUUACGGACU | -1.21 ± 0.072 | -0.711 ± 0.094
UAAAAGCAAUAUUACGGCCG | 0.132 ± 0.12 | 0.444 ± 0.17
UAAAAGCAAUAUUACGGCGA | -0.67 ± 0.11 | 0.453 ± 0.13
UAAAAGCAAUAUUACGGCGU | -1.12 ± 0.084 | -0.0589 ± 0.1
UAAAAGCAAUAUUACGGCUA | 0.159 ± 0.073 | -0.0882 ± 0.084
UAAAAGCAAUAUUACGGGGA | -1.73 ± 0.12 | -0.962 ± 0.12
UAAAAGCAAUAUUACGGGGG | -2.62 ± 0.19 | -2.43 ± 0.24
UAAAAGCAAUAUUACGGGUG | -0.67 ± 0.042 | -0.46 ± 0.061
UAAAAGCAAUAUUACGGUCG | -0.35 ± 0.087 | -0.0674 ± 0.1
UAAAAGCAAUAUUACGUAGC | -3.26 ± 0.19 | -2.72 ± 0.18
UAAAAGCAAUAUUACGUAUC | -3.81 ± 0.35 | -2.07 ± 0.23
UAAAAGCAAUAUUACGUUGG | -2.36 ± 0.1 | -1.42 ± 0.12
UAAAAGCAAUAUUACGUUUC | -3.32 ± 0.14 | -2.36 ± 0.19
UAACAGCAAUAUUACGCCAC | -3.93 ± 0.35 | -1.54 ± 0.23
UAACAGCAAUAUUACGCCCG | -0.202 ± 0.16 | -0.59 ± 0.18
UAACAGCAAUAUUACGCGGU | -3.25 ± 0.17 | -3.29 ± 0.15
UAACAGCAAUAUUACGCUCC | -2.62 ± 0.32 | -1.22 ± 0.3
UAACAGCAAUAUUACGCUUG | -0.975 ± 0.06 | -0.577 ± 0.082
UAACAGCAAUAUUACGGAAC | -3.85 ± 0.24 | -4.18 ± 0.39

Sequence | self-splicing fitness (ln) (30 °C) | self-splicing fitness (ln) (37 °C)
UAACAGCAAUAUUACGGACC | -3.44 ± 0.43 | -1.98 ± 0.28
UAACAGCAAUAUUACGGAGA | -3.27 ± 0.21 | -1.1 ± 0.11
UAACAGCAAUAUUACGGCUA | 0.184 ± 0.052 | -0.0982 ± 0.067
UAACAGCAAUAUUACGGGAA | -1.76 ± 0.13 | -1.35 ± 0.11
UAACAGCAAUAUUACGGUAU | -3.01 ± 0.11 | -2.06 ± 0.17
UAACAGCAAUAUUACGGUUC | -2.65 ± 0.069 | -1.28 ± 0.08
UAACAGCAAUAUUACGUAAC | -2.93 ± 0.17 | -1.62 ± 0.16
UAACAGCAAUAUUACGUAGU | -3.35 ± 0.14 | -2.7 ± 0.18
UAACAGCAAUAUUACGUCGA | -1.03 ± 0.12 | 0.186 ± 0.098
UAACAGCAAUAUUACGUCGG | -0.858 ± 0.066 | -0.53 ± 0.08
UAACAGCAAUAUUACGUGAC | -3.68 ± 0.2 | -2.46 ± 0.17
UAACAGCAAUAUUACGUUCA | -0.481 ± 0.049 | 0.0141 ± 0.07
UAACAGCAAUAUUACGUUCC | -2.23 ± 0.11 | -2.28 ± 0.18
UAACAGCAAUAUUACGUUGG | -1.67 ± 0.083 | -0.828 ± 0.096
UAAGAGCAAUAUUACGAAGA |  | -1.98 ± 0.38
UAAGAGCAAUAUUACGAGCC | -3.56 ± 0.25 | -2.26 ± 0.24
UAAGAGCAAUAUUACGAUAG | -3.46 ± 0.31 | -2.12 ± 0.33
UAAGAGCAAUAUUACGAUCU | -2.51 ± 0.24 | -2.86 ± 0.36
UAAGAGCAAUAUUACGAUGA | -2.15 ± 0.22 | -2.63 ± 0.38
UAAGAGCAAUAUUACGCAAC |  | -2.19 ± 0.45
UAAGAGCAAUAUUACGCAUG | -2.75 ± 0.28 | -1.2 ± 0.23
UAAGAGCAAUAUUACGCGUC | -3.81 ± 0.25 | -2.29 ± 0.23
UAAGAGCAAUAUUACGCUCG |  | -0.845 ± 0.23
UAAGAGCAAUAUUACGGAAC | -2.54 ± 0.33 | -3.2 ± 0.46
UAAGAGCAAUAUUACGGGCU |  | -2.53 ± 0.32
UAAGAGCAAUAUUACGGGGC | -4 ± 0.42 | -2.83 ± 0.32
